Target: recombinant GRD domain of GAPA (37 kDa GRD polypeptide) (D. discoideum)
Assay: SEC; analytical gel filtration on Sephadex G75 (SMART system) of the purified GRD domain; OD280

stoichiometry N: 3
Substance: recombinant GRD domain of GAPA (37 kDa GRD polypeptide) (domain or fragment)

— PMC2978108
